T1: human EphB1 (Homo sapiens, UniProt P54762)
T1 construct: a protein of the extracellular region of each human Eph receptor fused with the SEAP protein and the His tag; made in house; host or cells: Expi293F cells (culture supernatant)
T1 sequence (P54762 18-540 limits assumed): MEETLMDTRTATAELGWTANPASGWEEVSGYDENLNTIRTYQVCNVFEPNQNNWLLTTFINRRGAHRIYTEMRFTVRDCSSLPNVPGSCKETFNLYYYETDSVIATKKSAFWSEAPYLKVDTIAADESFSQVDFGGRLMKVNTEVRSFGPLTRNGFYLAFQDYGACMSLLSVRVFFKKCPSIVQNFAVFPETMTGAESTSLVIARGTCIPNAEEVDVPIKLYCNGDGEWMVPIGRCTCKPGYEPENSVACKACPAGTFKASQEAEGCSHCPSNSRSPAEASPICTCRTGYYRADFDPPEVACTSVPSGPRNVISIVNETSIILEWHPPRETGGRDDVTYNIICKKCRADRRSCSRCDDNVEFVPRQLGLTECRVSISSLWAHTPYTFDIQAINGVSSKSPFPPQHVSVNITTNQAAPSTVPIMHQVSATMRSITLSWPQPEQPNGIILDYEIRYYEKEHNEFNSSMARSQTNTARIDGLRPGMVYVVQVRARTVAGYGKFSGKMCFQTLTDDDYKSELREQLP

T2: human EphB2 (Homo sapiens, UniProt P29323)
T2 construct: a protein of the extracellular region of each human Eph receptor fused with the SEAP protein and the His tag; made in house; host or cells: Expi293F cells
T2 sequence (P29323 19-543 limits assumed): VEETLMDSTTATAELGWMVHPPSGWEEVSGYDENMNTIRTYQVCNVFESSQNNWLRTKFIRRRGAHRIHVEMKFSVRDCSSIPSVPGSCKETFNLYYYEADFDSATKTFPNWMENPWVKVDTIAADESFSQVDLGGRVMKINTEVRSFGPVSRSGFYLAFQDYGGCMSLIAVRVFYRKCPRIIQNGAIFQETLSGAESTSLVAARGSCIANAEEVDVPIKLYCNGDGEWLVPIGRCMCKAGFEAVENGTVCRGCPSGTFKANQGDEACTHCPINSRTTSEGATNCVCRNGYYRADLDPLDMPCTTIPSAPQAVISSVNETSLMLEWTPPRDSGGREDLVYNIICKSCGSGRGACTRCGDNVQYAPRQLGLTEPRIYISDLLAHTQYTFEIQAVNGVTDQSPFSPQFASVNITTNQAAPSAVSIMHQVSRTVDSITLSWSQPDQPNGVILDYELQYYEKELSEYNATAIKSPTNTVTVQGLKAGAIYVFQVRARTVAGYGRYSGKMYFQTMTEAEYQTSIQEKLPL

T3: human EphA7 (Homo sapiens, UniProt Q15375)
T3 construct: a protein of the extracellular region of each human Eph receptor fused with the SEAP protein and the His tag; made in house; host or cells: Expi293F cells (culture supernatant)
T3 sequence (Q15375 28-555 limits assumed): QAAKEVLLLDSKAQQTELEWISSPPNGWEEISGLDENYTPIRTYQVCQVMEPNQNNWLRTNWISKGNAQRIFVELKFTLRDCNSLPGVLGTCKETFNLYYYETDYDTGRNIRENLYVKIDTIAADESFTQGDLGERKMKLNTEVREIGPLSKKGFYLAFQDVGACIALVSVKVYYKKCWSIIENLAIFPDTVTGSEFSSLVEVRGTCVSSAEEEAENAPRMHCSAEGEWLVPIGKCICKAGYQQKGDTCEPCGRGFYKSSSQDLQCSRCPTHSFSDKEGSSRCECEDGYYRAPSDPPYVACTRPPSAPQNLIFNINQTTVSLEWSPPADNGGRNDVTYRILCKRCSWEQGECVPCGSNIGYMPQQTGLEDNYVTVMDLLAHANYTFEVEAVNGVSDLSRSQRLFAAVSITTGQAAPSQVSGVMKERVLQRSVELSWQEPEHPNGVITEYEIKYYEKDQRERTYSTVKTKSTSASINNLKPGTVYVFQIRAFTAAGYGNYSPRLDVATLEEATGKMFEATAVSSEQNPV


Assays:
Experiment in all cases: Selectivity ELISA of humanized antibodies for human Eph receptor
Type in all cases: binding
Conditions in all cases: coated protein 1 nM
human EphB1 = biological target: T1, human EphB1
Summary of the method: (§1)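 His-tagged SEAP fusions of each human Eph receptor extracellular region, from Expi293F supernatants, were captured at 1 nM on anti-His-coated wells. Humanized antibody was bound 1 h at room temperature, then detected with HRP […] IgG. TMB development was acid-stopped and read at 450 nm.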

human EphB2 = biological target: T2, human EphB2
Summary of the method: as §1

human EphA5 = biological target: T4, human EphA5 (Homo sapiens, UniProt P54756)
T4 construct: a protein of the extracellular region of each human Eph receptor fused with the SEAP protein and the His tag; made in house; host or cells: Expi293F cells (culture supernatant)
Summary of the method: as §1

human EphA7 = biological target: T3, human EphA7
Summary of the method: as §1

T4 sequence (P54756 25-573 limits assumed): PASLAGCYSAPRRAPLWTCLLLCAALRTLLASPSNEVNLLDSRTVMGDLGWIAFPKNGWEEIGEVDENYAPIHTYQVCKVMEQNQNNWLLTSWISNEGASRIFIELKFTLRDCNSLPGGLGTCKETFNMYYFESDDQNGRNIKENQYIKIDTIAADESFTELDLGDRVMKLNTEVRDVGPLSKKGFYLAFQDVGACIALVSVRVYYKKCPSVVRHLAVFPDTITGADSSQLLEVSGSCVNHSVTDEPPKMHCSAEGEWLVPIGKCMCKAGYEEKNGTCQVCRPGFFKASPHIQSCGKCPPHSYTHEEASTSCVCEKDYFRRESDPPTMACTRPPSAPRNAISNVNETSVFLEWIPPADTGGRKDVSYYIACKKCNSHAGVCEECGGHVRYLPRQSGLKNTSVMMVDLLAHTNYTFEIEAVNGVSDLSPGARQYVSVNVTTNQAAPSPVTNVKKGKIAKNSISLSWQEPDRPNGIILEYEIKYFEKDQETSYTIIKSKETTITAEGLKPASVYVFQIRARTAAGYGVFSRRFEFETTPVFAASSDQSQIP

| Molecule | hEphB1-SEAP-: absorbance at 450 nm, percentage with respect to hEphA4-SEAP-His as 100% (human EphB1) [%] | hEphB2-SEAP-: absorbance at 450 nm, percentage with respect to hEphA4-SEAP-His as 100% (human EphB2) [%] | hEphA5-SEAP-: absorbance at 450 nm, percentage with respect to hEphA4-SEAP-His as 100% (human EphA5) [%] | hEphA7-SEAP-: absorbance at 450 nm, percentage with respect to hEphA4-SEAP-His as 100% (human EphA7) [%] |
| --- | --- | --- | --- | --- |
| 69 (antibody, V domains shown, synthetic humanized antibody heavy chain variable region sequence; synthetic humanized antibody light chain variable region sequence) VH: QIQLVQSGSELKKPGASVKVSCKASGYTFTDYSMHWVRQAPGQGLKWMGWINTETGEPTYADDFKGRFVFSLDTSVSTAYLQISSLKAEDTAVYYCARIPLYYYGSRYWYFDVWGQGTTVTVSS VL: DIQMTQSPSSLSASVGDRVTITCRASENIYRNLAWYQQKPGKAPKLLVYAATNLADGVPSRFSGSGSGTDYTLTISSLQPEDFATYYCQHFWGTPWTFGQGTKVEIK | 5.6 | 5.5 | 5.6 | 5.3 |
| 81 (antibody, V domains shown, constant regions without entry; synthetic humanized antibody light chain variable region sequence; synthetic humanized antibody heavy chain variable region sequence) VL: DIQMTQSPSSLSASVGDRVTITCRASENIYRNLAWYQQKPGKAPKLLLYAATNLADGVPSRFSGSGSGTDYTLTISSLQSEDFATYYCQHFWGTPWTFGQGTKVEIK VH: QVQLVQSGSELKKPGASVKVSCKASGYTFTDYSMHWVRQAPGQGLEWMGWINTETGEPTYAQGFTGRFVFSLDTSVSTAYLQISSLKAEDTAVYYCARIPLYYYGSRYWYFDVWGQGTTVTVSS | 4.9 | 5.0 | 4.9 | 5.2 |
| 82 (antibody, V domains shown, constant regions without entry; synthetic humanized antibody light chain variable region sequence; synthetic humanized antibody heavy chain variable region sequence) VL: DIQMTQSPSSLSASVGDRVTITCRASENIYRNLAWYQQKPGKAPKLLLYAATNLADGVPSRFSGSGSGTDYTLTISSLQSEDFATYYCQHFWGTPWTFGQGTKVEIK VH: QVQLVQSGSELKKPGASVKVSCKASGYTFTDYSMHWVRQAPGQGLKWMGWINTETGEPTYAQGFTGRFVFSLDTSVSTAYLQISSLKAEDTAVYYCARIPLYYYGSRYWYFDVWGQGTTVTVSS | 5.4 | 5.6 | 6.5 | 5.4 |
| 83 (antibody, V domains shown, constant regions without entry; synthetic humanized antibody light chain variable region sequence; synthetic humanized antibody heavy chain variable region sequence) VL: DIQMTQSPSSLSASVGDRVTITCRASENIYRNLAWYQQKPGKAPKLLLYAATNLADGVPSRFSGSGSGTDYTLTISSLQSEDFATYYCQHFWGTPWTFGQGTKVEIK VH: QIQLVQSGSELKKPGASVKVSCKASGYTFTDYSMHWVRQAPGQGLKWMGWINTETGEPTYAQGFTGRFVFSLDTSVSTAYLQISSLKAEDTAVYYCARIPLYYYGSRYWYFDVWGQGTTVTVSS | 5.6 | 5.6 | 5.8 | 5.5 |

Continued, values first:

| hEphB1-SEAP-: absorbance at 450 nm, percentage with respect to hEphA4-SEAP-His as 100% (human EphB1) [%] | hEphB2-SEAP-: absorbance at 450 nm, percentage with respect to hEphA4-SEAP-His as 100% (human EphB2) [%] | hEphA5-SEAP-: absorbance at 450 nm, percentage with respect to hEphA4-SEAP-His as 100% (human EphA5) [%] | hEphA7-SEAP-: absorbance at 450 nm, percentage with respect to hEphA4-SEAP-His as 100% (human EphA7) [%] | Molecule |
| --- | --- | --- | --- | --- |
| 5.2 | 4.9 | 5.0 | 4.8 | 84 (antibody, V domains shown, constant regions without entry; synthetic humanized antibody light chain variable region sequence; synthetic humanized antibody heavy chain variable region sequence) VL: DIQMTQSPSSLSASVGDRVTITCRASENIYRNLAWYQQKPGKAPKLLLYAATNLADGVPSRFSGSGSGTDYTLTISSLQSEDFATYYCQHFWGTPWTFGQGTKVEIK VH: QVQLVQSGSELKKPGASVKVSCKASGYTFTDYSMHWVRQAPGQGLEWMGWINTETGEPTYADDFKGRFVFSLDTSVSTAYLQISSLKAEDTAVYYCARIPLYYYGSRYWYFDVWGQGTTVTVSS |
| 5.0 | 5.1 | 5.0 | 4.8 | 85 (antibody, V domains shown, constant regions without entry; synthetic humanized antibody light chain variable region sequence; synthetic humanized antibody heavy chain variable region sequence) VL: DIQMTQSPSSLSASVGDRVTITCRASENIYRNLAWYQQKPGKAPKLLLYAATNLADGVPSRFSGSGSGTDYTLTISSLQSEDFATYYCQHFWGTPWTFGQGTKVEIK VH: QVQLVQSGSELKKPGASVKVSCKASGYTFTDYSMHWVRQAPGQGLKWMGWINTETGEPTYADDFKGRFVFSLDTSVSTAYLQISSLKAEDTAVYYCARIPLYYYGSRYWYFDVWGQGTTVTVSS |
| 5.7 | 5.7 | 5.7 | 5.6 | 86 (antibody, V domains shown, constant regions without entry; synthetic humanized antibody light chain variable region sequence; synthetic humanized antibody heavy chain variable region sequence) VL: DIQMTQSPSSLSASVGDRVTITCRASENIYRNLAWYQQKPGKAPKLLLYAATNLADGVPSRFSGSGSGTDYTLTISSLQSEDFATYYCQHFWGTPWTFGQGTKVEIK VH: QIQLVQSGSELKKPGASVKVSCKASGYTFTDYSMHWVRQAPGQGLKWMGWINTETGEPTYADDFKGRFVFSLDTSVSTAYLQISSLKAEDTAVYYCARIPLYYYGSRYWYFDVWGQGTTVTVSS |

From US10428140B2, “Anti-EphA4 antibody” (EISAI R&D MANAGEMENT CO., LTD., priority 2015, dated 2019)
